Experimental data published in patent publication US20250326865A1, “C-MET PROTEIN-BINDING PEPTIDE COMPLEX” (PeptiDream Inc., priority 2021, published 2025).
Starred links: 1 amine or outer side, 2 acyl side, 3 side chain; linkers in the order of their positions; H or OH if unused. Positions of bridges follow the written chain, without caps; N, C: chain ends. Non-standard residues stand in square brackets, D forms with d. Residues, ends and D or L forms follow the SMILES beside them. Primed or numbered codes have the meaning given here. Chains are numbered I, II in the order given. No end group written: not given here. CO(CH2CH2O)9CH2CH2CO = O=C(CCOCCOCCOCCOCCOCCOCCOCCOCCOCCC(=O)[*:2])[*:1]; X1 = O=C(OCCOCCOCCOCCOCCOCCOCCOCCOCCOCCOCCOCCOC(=O)[*:2])[*:1]; NMeF = CN[C@@H](Cc1ccccc1)C(=O)O; Ahp(2) = CCCCC[C@H](N)C(=O)O; NMeC = CN[C@@H](CS)C(=O)O; Nle = CCCC[C@H](N)C(=O)O; Ahp′ = not defined here

target: T1, c-Met (Homo sapiens, UniProt P08581); test: Phospho-c-Met AlphaLISA assay (c-Met agonist activity) in A431 cells; assay type: cell-based; settings: c-Met phosphorylation (Tyr1234/1235) in A431 cells, 15 minutes of stimulation; maximum signal induced by HGF = 100%
T1 construct: endogenous in cells; host or cells: A431 (human)
T1 sequence (P08581 25-1390): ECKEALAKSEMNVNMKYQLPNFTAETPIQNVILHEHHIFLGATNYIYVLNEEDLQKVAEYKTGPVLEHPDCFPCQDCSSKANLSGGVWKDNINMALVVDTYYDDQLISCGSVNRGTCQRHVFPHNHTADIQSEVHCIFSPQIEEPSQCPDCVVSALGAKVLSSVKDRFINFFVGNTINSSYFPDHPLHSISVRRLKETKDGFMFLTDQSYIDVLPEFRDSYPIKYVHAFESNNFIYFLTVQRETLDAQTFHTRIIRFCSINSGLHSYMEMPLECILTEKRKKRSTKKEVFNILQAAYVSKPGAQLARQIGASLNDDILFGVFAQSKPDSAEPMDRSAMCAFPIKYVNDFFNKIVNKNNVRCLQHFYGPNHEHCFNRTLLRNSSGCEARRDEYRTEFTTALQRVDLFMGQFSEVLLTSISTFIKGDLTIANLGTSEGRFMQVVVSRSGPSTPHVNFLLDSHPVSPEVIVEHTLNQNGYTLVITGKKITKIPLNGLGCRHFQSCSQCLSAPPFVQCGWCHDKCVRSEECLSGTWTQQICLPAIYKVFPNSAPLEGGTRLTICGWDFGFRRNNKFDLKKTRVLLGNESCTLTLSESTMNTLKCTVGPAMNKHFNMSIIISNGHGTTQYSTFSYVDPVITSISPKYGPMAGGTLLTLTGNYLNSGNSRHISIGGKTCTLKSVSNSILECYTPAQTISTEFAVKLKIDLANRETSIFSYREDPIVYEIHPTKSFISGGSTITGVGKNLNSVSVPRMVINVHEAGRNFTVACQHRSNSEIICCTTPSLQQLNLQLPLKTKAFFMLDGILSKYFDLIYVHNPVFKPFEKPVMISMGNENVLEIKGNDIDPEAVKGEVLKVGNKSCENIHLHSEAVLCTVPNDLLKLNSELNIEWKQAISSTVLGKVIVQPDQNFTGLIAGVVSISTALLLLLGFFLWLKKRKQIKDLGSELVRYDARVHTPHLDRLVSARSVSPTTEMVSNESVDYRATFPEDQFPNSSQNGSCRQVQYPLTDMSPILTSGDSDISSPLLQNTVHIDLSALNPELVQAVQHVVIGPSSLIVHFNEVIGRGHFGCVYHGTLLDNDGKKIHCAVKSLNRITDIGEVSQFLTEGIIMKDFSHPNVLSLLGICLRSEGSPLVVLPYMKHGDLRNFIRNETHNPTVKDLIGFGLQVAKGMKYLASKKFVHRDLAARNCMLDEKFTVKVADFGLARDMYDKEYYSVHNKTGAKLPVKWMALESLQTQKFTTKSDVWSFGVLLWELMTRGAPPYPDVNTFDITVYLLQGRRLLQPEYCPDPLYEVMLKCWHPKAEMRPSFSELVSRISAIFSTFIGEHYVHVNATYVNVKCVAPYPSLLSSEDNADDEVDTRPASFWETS
Protocol: To evaluate the activation potency (c-Met agonist activity) of c-Met of the peptide complex of the present invention, the phosphorylation of c-Met was verified. Human A431 cells were cultured in DMEM high glucose, GlutaMAX (registered trademark) Supplement, pyruvate (Thermo Fisher Scientific), containing 10% FBS (Gibco). After cells were detached using Accutase (Innovative cell technologies), they were seeded into a 96-well plate at 10000 cells per well and cultured overnight. The next day, for starvation, the culture medium was changed to DMEM high glucose, GlutaMAX (registered trademark) Supplement, pyruvate (Thermo Fisher Scientific), containing 0.1% BSA (Sigma-Aldrich), and the cells were cultured overnight. Then, the peptide complex synthesized in Example 3 or Recombinant Human HGF Protein (R&D systems) as a control was added, and after 15 minutes of stimulation, cells were lysed in a Lysis Buffer provided in the AlphaLISA (registered trademark) SureFire (registered trademark) Ultra™ Phospho-c-Met (Tyr1234/1235) kit (PerkinElmer). The assay was performed according to the kit protocol, and a SpectraMax (registered trademark) Paradigm (registered trademark) multimode microplate reader (Molecular Devices, LLC.) was used for signal detection. […] In the same manner, the C50 value was calculated by GraphPad Prism as the concentration of peptide showing 50% activity of the signal induced by HGF. […] Further, for a complex (GFs_c-Met-00014336-PEG13 dimer; complex no. 49 in Table 4) of a peptide (SEQ ID NO: 34) and a linker (SEQ ID NO: 37), a graph of c-Met agonist activity is shown in FIG. 1.

Row | Compound | C-Met Agonist Activity (2 or 1)
1 | 5 ([NMeF]WYVS[NMeF]DDD[Ahp′]PRWS[NMeC]; not fully specified; reading uncertain) [Peptide 5] | 2 (those showing more than 50% activation were described as 2)
2 | 8 ({CH2CO}-[NMeF]VYVS[NMeF]DDD[Nle]PRWS[NMeC]; thioether N-15 (inferred); not fully specified; also: conjugated moiety via linker) [Peptide 8] | 2 (those showing more than 50% activation were described as 2)
3 | 2 ({CH2CO}-[MeA]VYVS[NMeF]DDD[Ahp′]PRWS[NMeC]; thioether N-15 (inferred); not fully specified; reading uncertain; also: conjugated moiety via linker) [Peptide 2] | 1 (those showing less than 50% activation as 1)
4 | 9 ([NMeF]VYVS[NMeF]DDDSPRWS[NMeC]; also: conjugated moiety via linker, site not given here) [Peptide 9] | 2 (those showing more than 50% activation were described as 2)
5 | 1 ({CH2CO}-[NMeF]VYVS[NMeF]DDD[Ahp′]PRWS[NMeC]; thioether N-15 (inferred); not fully specified; reading uncertain; also: conjugated moiety via linker) [Peptide 1] | 2 (those showing more than 50% activation were described as 2)
6 | 12 ({CH2CO}-[NMeF]VYVS[NMeF]DDD[Ahp′]PRWD[NMeC]; thioether N-15 (inferred); not fully specified; reading uncertain; also: conjugated moiety via linker) [Peptide 12] | 2 (those showing more than 50% activation were described as 2)
7 | 13 ({CH2CO}-[NMeF]VYVS[NMeF]DDD[Ahp′]PRWH[NMeC]; thioether N-15 (inferred); not fully specified; reading uncertain; also: conjugated moiety via linker) [Peptide 13] | 2 (those showing more than 50% activation were described as 2)
8 | 16 ({CH2CO}-[NMeF]VAVS[NMeF]DDD[Ahp′]PRWS[NMeC]; thioether N-15 (inferred); not fully specified; reading uncertain; also: conjugated moiety via linker) [Peptide 16] | 1 (those showing less than 50% activation as 1)

same assay, conditions: concentration of peptide showing 50% activity of the signal induced by HGF; A431 cells, 15 minutes of stimulation; read-out: C-Met Agonist Activity (C50; nM)

Row | EC50 | Compound
9 | 0.81 nM | CCCCC[C@@H]1NC(=O)[C@H](CC(=O)O)NC(=O)[C@@H]2CCCN2C(=O)[C@H](CC(=O)O)NC(=O)[C@H](Cc2ccccc2)N(C)C(=O)[C@H](CO)NC(=O)[C@H](C(C)C)NC(=O)[C@H](C)NC(=O)[C@H](CCC(=O)O)NC(=O)[C@H](Cc2ccccc2)N(C)C(=O)CSC[C@@H](C(=O)NCC(=O)N[C@@H](CCCCNC(=O)CCOCCOCCOCCOCCOCCOCCOCCOCCOCCC(=O)NCCCC[C@H](NC(=O)CNC(=O)[C@@H]2CSCC(=O)N(C)[C@@H](Cc3ccccc3)C(=O)N[C@@H](CCC(=O)O)C(=O)N[C@@H](C)C(=O)N[C@@H](C(C)C)C(=O)N[C@@H](CO)C(=O)N(C)[C@@H](Cc3ccccc3)C(=O)N[C@@H](CC(=O)O)C(=O)N3CCC[C@H]3C(=O)N[C@@H](CC(=O)O)C(=O)N[C@@H](CCCCC)C(=O)N3CCC[C@H]3C(=O)N[C@@H](CCCNC(=N)N)C(=O)N[C@@H](Cc3c[nH]c4ccccc34)C(=O)N[C@@H](CO)C(=O)N2C)C(N)=O)C(N)=O)N(C)C(=O)[C@H](CO)NC(=O)[C@H](Cc2c[nH]c3ccccc23)NC(=O)[C@H](CCCNC(=N)N)NC(=O)[C@@H]2CCCN2C1=O [Peptide 30] (I: {CH2CO}-[NMeF]EAVS[NMeF]DPD[Ahp(2)]PRWS[NMeC]GK-NH2 / II: {CH2CO}-[NMeF]EAVS[NMeF]DPD[Ahp(2)]PRWS[NMeC]GK-NH2; linker I:17-II:17 via CO(CH2CH2O)9CH2CH2CO (inferred); thioether I:N-I:15, II:N-II:15 (inferred))
10 | 0.67 nM | CCCCC[C@@H]1NC(=O)[C@H](CC(=O)O)NC(=O)[C@@H]2CCCN2C(=O)[C@H](CC(=O)O)NC(=O)[C@H](Cc2ccccc2)N(C)C(=O)[C@H](CO)NC(=O)[C@H](C(C)C)NC(=O)[C@H](C)NC(=O)[C@H]([C@@H](C)O)NC(=O)[C@H](Cc2ccccc2)N(C)C(=O)CSC[C@@H](C(=O)NCC(=O)N[C@@H](CCCCNC(=O)CCOCCOCCOCCOCCOCCOCCOCCOCCOCCC(=O)NCCCC[C@H](NC(=O)CNC(=O)[C@@H]2CSCC(=O)N(C)[C@@H](Cc3ccccc3)C(=O)N[C@@H]([C@@H](C)O)C(=O)N[C@@H](C)C(=O)N[C@@H](C(C)C)C(=O)N[C@@H](CO)C(=O)N(C)[C@@H](Cc3ccccc3)C(=O)N[C@@H](CC(=O)O)C(=O)N3CCC[C@H]3C(=O)N[C@@H](CC(=O)O)C(=O)N[C@@H](CCCCC)C(=O)N3CCC[C@H]3C(=O)N[C@@H](CCCNC(=N)N)C(=O)N[C@@H](Cc3c[nH]c4ccccc34)C(=O)N[C@@H](C)C(=O)N2C)C(N)=O)C(N)=O)N(C)C(=O)[C@H](C)NC(=O)[C@H](Cc2c[nH]c3ccccc23)NC(=O)[C@H](CCCNC(=N)N)NC(=O)[C@@H]2CCCN2C1=O [Peptide 46] (I: {CH2CO}-[NMeF]TAVS[NMeF]DPD[Ahp(2)]PRWA[NMeC]GK-NH2 / II: {CH2CO}-[NMeF]TAVS[NMeF]DPD[Ahp(2)]PRWA[NMeC]GK-NH2; linker I:17-II:17 via CO(CH2CH2O)9CH2CH2CO (inferred); thioether I:N-I:15, II:N-II:15 (inferred))
11 | 0.33 nM | CCCCC[C@@H]1NC(=O)[C@H](CC(=O)O)NC(=O)[C@H](CO)NC(=O)[C@H](CC(=O)O)NC(=O)[C@H](Cc2ccccc2)N(C)C(=O)[C@H](CO)NC(=O)[C@H](C(C)C)NC(=O)[C@H](C)NC(=O)[C@H]([C@@H](C)O)NC(=O)[C@H](Cc2ccccc2)N(C)C(=O)CSC[C@@H](C(=O)NCC(=O)N[C@@H](CCCCNC(=O)CCOCCOCCOCCOCCOCCOCCOCCOCCOCCC(=O)NCCCC[C@H](NC(=O)CNC(=O)[C@@H]2CSCC(=O)N(C)[C@@H](Cc3ccccc3)C(=O)N[C@@H]([C@@H](C)O)C(=O)N[C@@H](C)C(=O)N[C@@H](C(C)C)C(=O)N[C@@H](CO)C(=O)N(C)[C@@H](Cc3ccccc3)C(=O)N[C@@H](CC(=O)O)C(=O)N[C@@H](CO)C(=O)N[C@@H](CC(=O)O)C(=O)N[C@@H](CCCCC)C(=O)N3CCC[C@H]3C(=O)N[C@@H](CCCNC(=N)N)C(=O)N[C@@H](Cc3c[nH]c4ccccc34)C(=O)N[C@@H](C)C(=O)N2C)C(N)=O)C(N)=O)N(C)C(=O)[C@H](C)NC(=O)[C@H](Cc2c[nH]c3ccccc23)NC(=O)[C@H](CCCNC(=N)N)NC(=O)[C@@H]2CCCN2C1=O [Peptide 44] (I: {CH2CO}-[NMeF]TAVS[NMeF]DSD[Ahp(2)]PRWA[NMeC]GK-NH2 / II: {CH2CO}-[NMeF]TAVS[NMeF]DSD[Ahp(2)]PRWA[NMeC]GK-NH2; linker I:17-II:17 via CO(CH2CH2O)9CH2CH2CO (inferred); thioether I:N-I:15, II:N-II:15 (inferred))

Row | Compound | EC50
12 | CCCCC[C@@H]1NC(=O)[C@H](CC(=O)O)NC(=O)[C@H](CCC(=O)O)NC(=O)[C@H](CC(=O)O)NC(=O)[C@H](Cc2ccccc2)N(C)C(=O)[C@H](CO)NC(=O)[C@H](C(C)C)NC(=O)[C@H](C)NC(=O)[C@H]([C@@H](C)O)NC(=O)[C@H](Cc2ccccc2)N(C)C(=O)CSC[C@@H](C(=O)NCC(=O)N[C@@H](CCCCNC(=O)OCCOCCOCCOCCOCCOCCOCCOCCOCCOCCOCCOCCOC(=O)NCCCC[C@H](NC(=O)CNC(=O)[C@@H]2CSCC(=O)N(C)[C@@H](Cc3ccccc3)C(=O)N[C@@H]([C@@H](C)O)C(=O)N[C@@H](C)C(=O)N[C@@H](C(C)C)C(=O)N[C@@H](CO)C(=O)N(C)[C@@H](Cc3ccccc3)C(=O)N[C@@H](CC(=O)O)C(=O)N[C@@H](CCC(=O)O)C(=O)N[C@@H](CC(=O)O)C(=O)N[C@@H](CCCCC)C(=O)N3CCC[C@H]3C(=O)N[C@@H](CCCNC(=N)N)C(=O)N[C@@H](Cc3c[nH]c4ccccc34)C(=O)N[C@@H](CO)C(=O)N2C)C(N)=O)C(N)=O)N(C)C(=O)[C@H](CO)NC(=O)[C@H](Cc2c[nH]c3ccccc23)NC(=O)[C@H](CCCNC(=N)N)NC(=O)[C@@H]2CCCN2C1=O [Peptide 49] (I: {CH2CO}-[NMeF]TAVS[NMeF]DED[Ahp(2)]PRWS[NMeC]GK-NH2 / II: {CH2CO}-[NMeF]TAVS[NMeF]DED[Ahp(2)]PRWS[NMeC]GK-NH2; linker I:17-II:17 via X1 (inferred); thioether I:N-I:15, II:N-II:15 (inferred); C-terminus assumed) | 0.67 nM

target: human c-Met protein (human, UniProt P08581 25-1390); test: cell-based or functional assay; settings: not given
Sequence (P08581 25-1390): as the sequence (P08581 25-1390) above

Row | EC50, HUVEC cell proliferation (CellTiter-Glo) | EC50, phospho-c-Met AlphaLISA, A431 cells | Compound
13 | 0.37 nM | 0.66 nM | Recombinant Human HGF Protein (R&D systems) (from UniProt P14210 32-728) (ligand)
